Measurements: US20210024639A1 (AGOMAB THERAPEUTICS, published 2021)

Columns and labels:
[1] = molecular target: human MET ECD mutant I (mutations 6, 7, 8) (human) (UniProt P08581); test: ELISA, MET ECD mutant in solid phase, mAb 0-50 nM
[2] = molecular target: human MET ECD mutant J (mutations 6, 7) (human) (UniProt P08581); test: ELISA, MET ECD mutant in solid phase, mAb 0-50 nM
[3] = molecular target: T1, native human MET on living human cells (human, UniProt P08581 25-1390); test: flow cytometry, A549 cells
T1 construct: whole, on cells; also called Human cells (A549); HPAF-II
Outline: (§1)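 Binding of chimeric antibodies to native MET on the cell surface is measured by flow cytometry after detection with a phycoerythrin-conjugated anti-human IgG1 reagent. Maximal binding (EMAX) is reported for each antibody.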

[4] = molecular target: T2, human MET-Fc chimeric protein (R&D Systems) (human, UniProt P08581 25-932); test: competition ELISA, hMET-Fc in solid phase, competitor 0.3 nM biotinylated hHGF
T2 construct: extracellular domain; bought (R&D Systems); also called hMET; not shown: Fc portion of human IgG1
Outline: (§2)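 An ELISA format measured how well mAbs (0-120 nM) displaced N-terminus-biotinylated HGF from plate-bound receptor. Results are given as the concentration producing 50% competition and as IMAX, the saturating maximum percentage.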

[5] = molecular target: T3, mouse MET-Fc chimeric protein (R&D Systems) (mouse, UniProt P16056 25-929, limits assumed); test: competition ELISA, mMET-Fc in solid phase, competitor 0.3 nM biotinylated mHGF
T3 construct: bought (R&D Systems); also called mMET; not shown: Fc
Outline: as §2

[6] = molecular target: T4, native mouse MET on living mouse cells (mouse, UniProt P16056 25-1379); test: cell-based or functional assay
[7] = molecular target: T1, native human MET on living human cells; test: cell-based or functional assay
[8] = molecular target: T4, native mouse MET on living mouse cells; test: cell-based or functional assay; remark: listed apart in the source
[9] = molecular target: T1, native human MET on living human cells; test: cell-based or functional assay; remark: listed apart in the source
[10] = molecular target: T4, native mouse MET on living mouse cells; test: flow cytometry, MLP29 cells
Outline: as §1

[11] = molecular target: human MET ECD mutant H (mutations 2, 4) (human) (UniProt P08581); test: ELISA, MET ECD mutant in solid phase, mAb 0-50 nM
[12] = molecular target: human MET ECD mutant D (mutations 1, 2) (human) (UniProt P08581); test: ELISA, MET ECD mutant in solid phase, mAb 0-50 nM
[13] = molecular target: human MET ECD mutant E (mutations 2, 3, 4) (human) (UniProt P08581); test: ELISA, MET ECD mutant in solid phase, mAb 0-50 nM
[14] = molecular target: human MET ECD mutant A (mutations 1, 2, 3) (human) (UniProt P08581); test: ELISA, MET ECD mutant in solid phase, mAb 0-50 nM
[15] = molecular target: T5, human MET extracellular domain (ECD) (human, UniProt P08581 25-932); test: ELISA, MET ECD in solid phase, mAb 0-50 nM
T5 construct: range 1-932; recombinant ECD; also called hMET; human MET ECD
Method: Using human MET as a template, we mutagenized each of these residues in different permutations, generating a series of MET mutants that are fully human except for specific residues, which are llama. Next, we tested the affinity of selected SEMA-binding mAbs (71D6, 71C3, 71D4, 71A3, 71G2) and PSI-binding mAbs (76H10 and 71G3) for these MET mutants by ELISA. To this end, the various MET proteins were immobilized in solid phase (100 ng/well in a 96-well plate) and then exposed to increasing concentrations of antibodies (0-50 nM) solution. […] Wild-type human MET was used as positive control.
TABLE 18 The epitopes of MET responsible for agonistic antibody binding represent residues conserved among H. sapiens, M. musculus, R. norvegicus, M. fascicularis but not among the same species and L. glama. The relevance of residues conserved among human, mouse, rat, cynomolgus monkey but not llama MET for binding to agonistic mAbs was tested by ELISA. Wild-type (WT) or mutant (MT) human MET ECD was immobilized in solid phase and exposed to increasing concentrations of mAbs in solution. […] All binding values were normalized to the WT protein and are expressed as % binding (EMAX) compared to WT MET.

B1: chimeric llama-human IgG1 mAb 76H10 (antibody, V domains shown)
VH: QLQLVESGGGLVQPGGSLRVSCTASGFTFNTYYMTWVRQAPGKGLEWVSDINSGGGTYYADSVKGRFTISRDNAKNTLYLQMNSLKPEDTALYYCVRVRIWPVGYDYWGQGTQVTVSS
VL: QAVVTQEPSLSVSPGGTVTLTCGLSSGSVTTSNYPGWFQQTPGQAPRTLIYNTNNRHSGVPSRFSGSISGNKAALTITGAQPEDEADYYCSLYTGSYTTVFGGGTHLTVL
% binding (EMAX) compared to WT MET [1]: 100% | % binding (EMAX) compared to WT MET [2]: 89% | EMAX (% relative to control) [3]: 130% | IMAX (maximum % competition) [4]: 64.2% | IMAX (maximum % competition) [5]: 62.7% | protection from staurosporine, viability EC50, MLP29 [6]: > 32 nM | protection from staurosporine, viability EMAX, MLP29 [6]: 27.2% | protection from staurosporine, viability EC50, MCF10A [7]: > 32 nM | protection from staurosporine, viability EMAX, MCF10A [7]: 22.8% | cell scattering score, MLP29, 0.001 nM [8]: 0 score 0-4 | cell scattering score, MLP29, 0.004 nM [8]: 0 score 0-4 | cell scattering score, MLP29, 0.012 nM [8]: 0 score 0-4 | cell scattering score, MLP29, 0.037 nM [8]: 0 score 0-4 | cell scattering score, MLP29, 0.111 nM [8]: 0 score 0-4 | cell scattering score, MLP29, 0.333 nM [8]: 0 score 0-4 | cell scattering score, MLP29, 1.000 nM [8]: 1 score 0-4 | cell scattering score, MLP29, 3.000 nM [8]: 2 score 0-4 | cell scattering score, MLP29, 9.000 nM [8]: 3 score 0-4 | cell scattering score, HPAF-II, 0.001 nM [9]: 0 score 0-4 | cell scattering score, HPAF-II, 0.004 nM [9]: 0 score 0-4 | cell scattering score, HPAF-II, 0.012 nM [9]: 0 score 0-4 | cell scattering score, HPAF-II, 0.037 nM [9]: 0 score 0-4 | cell scattering score, HPAF-II, 0.111 nM [9]: 0 score 0-4 | cell scattering score, HPAF-II, 0.333 nM [9]: 0 score 0-4 | cell scattering score, HPAF-II, 1.000 nM [9]: 1 score 0-4 | cell scattering score, HPAF-II, 3.000 nM [9]: 2 score 0-4 | cell scattering score, HPAF-II, 9.000 nM [9]: 3 score 0-4 | EMAX (% relative to control) [10]: 124%

B2: chimeric llama-human IgG1 mAb 71G2 (antibody, V domains shown)
VH: EVQLQESGGGLVQPGGSLRLSCAASGFTFSIYDMSWVRQAPGKGLEWVSTINSDGSSTSYVDSVKGRFTISRDNAKNTLYLQMNSLKPEDTAVYYCAKVYGSTWDVGPMGYGMDYWGKGTLVTVSS
VL: SSALTQPSALSVSLGQTARITCQGGSLGSSYAHWYQQKPGQAPVLVIYGDDSRPSGIPERFSGSSSGGTATLTISGAQAEDEDDYYCQSTDSSGNTVFGGGTRLTVL
% binding (EMAX) compared to WT MET [11]: 40.2% | % binding (EMAX) compared to WT MET [12]: 114% | % binding (EMAX) compared to WT MET [13]: 41.4% | % binding (EMAX) compared to WT MET [14]: 92.1% | EMAX (% relative to control) [3]: 144% | % binding (EMAX) compared to WT MET [15]: 100% | IMAX (maximum % competition) [4]: 97.8% | IMAX (maximum % competition) [5]: 91.9% | protection from staurosporine, viability EC50, MLP29 [6]: 1.99 nM | protection from staurosporine, viability EMAX, MLP29 [6]: 58.3% | protection from staurosporine, viability EC50, MCF10A [7]: 1.06 nM | protection from staurosporine, viability EMAX, MCF10A [7]: 64.8% | cell scattering score, MLP29, 0.001 nM [8]: 0 score 0-4 | cell scattering score, MLP29, 0.004 nM [8]: 0 score 0-4 | cell scattering score, MLP29, 0.012 nM [8]: 1 score 0-4 | cell scattering score, MLP29, 0.037 nM [8]: 2 score 0-4 | cell scattering score, MLP29, 0.111 nM [8]: 4 score 0-4 | cell scattering score, MLP29, 0.333 nM [8]: 4 score 0-4 | cell scattering score, MLP29, 1.000 nM [8]: 4 score 0-4 | cell scattering score, MLP29, 3.000 nM [8]: 4 score 0-4 | cell scattering score, MLP29, 9.000 nM [8]: 4 score 0-4 | cell scattering score, HPAF-II, 0.001 nM [9]: 0 score 0-4 | cell scattering score, HPAF-II, 0.004 nM [9]: 1 score 0-4 | cell scattering score, HPAF-II, 0.012 nM [9]: 2 score 0-4 | cell scattering score, HPAF-II, 0.037 nM [9]: 3 score 0-4 | cell scattering score, HPAF-II, 0.111 nM [9]: 4 score 0-4 | cell scattering score, HPAF-II, 0.333 nM [9]: 4 score 0-4 | cell scattering score, HPAF-II, 1.000 nM [9]: 4 score 0-4 | cell scattering score, HPAF-II, 3.000 nM [9]: 4 score 0-4 | cell scattering score, HPAF-II, 9.000 nM [9]: 4 score 0-4 | EMAX (% relative to control) [10]: 130%
